# Results as given in US11421026B2, “Antibodies that bind human cannabinoid 1 (CB1) receptor” (BIRD ROCK BIO, Inc., priority 2015, dated 2022).
# B1: 36E12B6C2: hybridoma-derived anti-CB1 mAb; HC variable SEQ ID NO: 18, LC variable SEQ ID NO: 22 (antibody, listed as Mus sp., V domains shown)
# VH: QVQLQQSGAELVRPGSSVKISCKASGYEFSYYWMNWVKQRPGQGLQWIGQIYPGDGDTNYNGKFKGKATLTADKSSSTAYMHLTSLTSEDSAVYFCARSGGNPFAFWGQGTLVTVSA
# VL: DIQMTQTSSSLSASLGDRVTFSCRASQDISNYLNWYQQKPDGTVKLLIYYTSRLHSGVTSRFRGSGSGTDYSLTISNLEQEDVATYFCQQGHTLPWSFGGGTKLEIK
# B2: PA13R3-P1C4: phage-derived chimeric anti-CB1 IgG; HC variable SEQ ID NO: 2, LC variable SEQ ID NO: 6 (antibody, V domains shown)
# VH: EVQLQQSGAELVRPGVSVKISCKASGYEFSYYWMNWVKQRPGQGLEWIGQIYPGDGETKYNGKFKGKATLTADKSSNTAYMQLSSLTSEDSAVYFCARSHGNYLPYWGQGTLVTVSA
# VL: DIVLTQSPAIMSASLGERVTMTCTASSSVSSSYLHWYQQKPGSSPKLWIYSTSNLASGVPARFSGSGSGTSYSLTISSMEAEDAATYYCHQYHRSPPTFGAGTKLELK
# modifications: PA13R3-P1C4 Heavy chain variable region; PA13R3-P1C4 Light chain variable region
# B3: PA13R3-P1C4 Fab: Fab fragment of chimeric PA13R3-P1C4 (antibody, V domains shown)
# VH: B2 VH
# VL: B2 VL
# Columns and labels:
# 5HT2B expressing cells = biological target: T1, 5HT2B expressing cells (Homo sapiens, UniProt P41595); assay: Flow cytometry selectivity versus 5HT2B; format: binding
# T1 construct: expressed in transfected cells
# Method: (§1) To further assess TRex CHO parental cells, TRex CHO A56 overexpressed CB1, Native human CB1 TRex CHO A156, 5HT2B, Mouse CB1 and human CB2 were used to examine the specificity of IgG binding. 100 μl of 1×10^6 cells/ml of cells were incubated with primary antibody IgGs in 3-fold serial dilutions starting from 1 μM to 0.5 nM for 30 minutes on ice. After being washed with 200 μl of FACS buffer twice, cells were incubated with secondary antibody for 30 minutes on ice. Cells were washed with 200 μl of FACS buffer twice and transferred to BD Falcon 5 ml tube and analyzed by FACS.
# (§2) Santa Cruz anti-CB1 rabbit polyclonal antibody and secondary antibody FITC conjugated anti-rabbit were used to detect the expression of mouse CB1. R&D mouse monoclonal anti-CB2 and human IgG P2C2 were used to confirm the expression of CB2 and 5HT2B respectively. Both anti-mouse and anti-human secondary antibodies were PE-conjugated.
# For selected binders, full binding curves were generated on CB1 receptor by testing a range of concentrations. Three-fold serial dilutions from 1 μM to […] were prepared. Selectivity was determined by measuring binding to cells expressing 5HT2B or CB2, relative to binding to A156 (native human CB1 receptor expressing) or A56 (overexpressed—CB1 receptor with the T210A modification and ICL3 replacement with fusion partner) by flow cytometry. As shown in FIG. 2C and FIG. 2D, the expression of CB2 and 5HT2B was confirmed using mouse monoclonal anti-CB2 and P2C2 human IgG to confirm CB2 and 5HT2B expression, respectively. PE-conjugated anti-mouse (for detection of anti-CB2) and PE conjugated anti-human antibodies were used to detect CB2 and 5HT2B, respectively.
# [1] = biological target: T2, Mouse CB1 (TRex CHO cells) (Mus musculus, UniProt P47746); assay: Flow cytometry cross-reactivity to mouse CB1; format: binding
# T2 construct: expressed in transfected cells
# Method: as §1, §2
# (§3) The binding affinity, cross-reactivity and specificity of humanized P1C4 antibodies were determined by flow cytometry with TRex CHO parental cells, TRex CHO A56 overexpressed CB1 cells (T210A/fusion partner), native human CB1 TRex CHO A156 cells, Trex parental (no CB1) cells, mouse CB1 cells, and human CB2 stable cells. […] After being washed with 200 μl of FACS buffer twice, cells were incubated with PE conjugated anti-human secondary antibody (Southern Biotech) for 30 minutes on ice. Cells were washed with 200 μl of FACS buffer twice and transferred to BD Falcon 5 ml tube and analyzed by flow cytometry (BD FACScalibur).
# Binding selectivity and cross-reactivity of PA13R3-P1C4 and its humanized variants was also characterized by flow cytometry using TRex CHO cells stably transfected with the GPCRs of interest. Specifically, binding selectivity for CB1 over CB2 was determined. Cross reactivity to mouse CB1 was also determined. For detecting expression of mouse CB1, 100 μL of 1×10^6 cells/mL of cells were incubated with anti-CB1 rabbit polyclonal antibody (Santa Cruz) at 1 μg/100 μL on ice for 30 min. Mouse monoclonal anti-CB2 antibody from R&D Systems was used to confirm the expression of CB2. 100 μL of 1×10^6 cells/mL of cells were incubated with anti-CB2 antibody at 0.5 μg/100 μL on ice for 30 minutes. After incubation, cells were then centrifuged at 4° C. at 1600 rpm for 3 minutes; supernatant was aspirated and cells were washed with 200 μL FACS buffer. The procedure was repeated twice. […] Cells were washed with 200 μL FACS buffer twice and analyzed by flow cytometry (Guava). Binding of purified IgG full concentration curves ranging from 1 μM to 1.3 nM was determined. […]
# [2] = biological target: T3, TRex CHO A156 Native human CB1 cells (Homo sapiens, UniProt P21554); assay: Competition assay by FACS; format: binding; details: excess competitor; staining IgG at EC80 and EC50
# T3 construct: pcDNA4/TO native full length human CB1 receptor construct was transfected into tetracycline inducible system Trex-CHO cells; expressed in transfected cells
# Method: TRex CHO A156 Native human CB1 cells were used to test whether 36E12B6C2 and P1C4 bind to similar epitopes. Concentrations at EC80 and EC50 of P1C4 and 36E12B6C2 were used for staining. Excess of PA13R3-P1C4 IgG, Fab and 36E12B6C2 were used for competition. 100 μl of 1×10^6 cells/ml of A156 cells were incubated with competitor IgGs for 30 minutes on ice and then staining IgGs were added into the mixture with 30 minutes incubation on ice. After being washed with 200 μl of FACS buffer twice, cells were incubated with secondary antibody for 30 minutes on ice. PE conjugated anti-human and anti-mouse was diluted in 1:200 folds. Cells were washed with 200 μl of FACS buffer twice and transferred to BD Falcon 5 ml tube and analyzed by FACS.
# [3] = system: TRex CHO parental cells (no CB1); assay: Flow cytometry (FACS) binding to parental cells
# Method: TRex CHO parental cells, TRex CHO A56 over-expressed CB1 (CB1 T210A/fusion partner), and Native human CB1 TRex CHO A156 were harvested from flasks. 100 μl of 1×10^6 cells/ml of cells were incubated with primary antibody IgGs. Secondary Antibody PE conjugated anti-human and anti-mouse was diluted in 1:200 folds. Anti-Human Fab FITC was diluted in 1:32 folds. Cells were washed with 200 μl of FACS buffer twice and transferred to BD 5 ml Falcon tube and analyzed by flow cytometry. Binding of purified IgG was initially tested at concentrations of 30 nM and 300 nM.
# as §1, §3
# The binding affinity of PA13R3-P1C4 humanized variants was determined by flow cytometry using TRex CHO cells stably transfected with the CB1. TRex CHO parental cells, and TRex-CHO cells stably transfected with tetracycline inducible human CB1, human CB2 or mouse CB1 expression constructs were harvested. To determine binding of test antibodies, one hundred microliters of 1×10^6 cells/mL of cells were incubated with test antibodies with a range of concentrations between 1 μM and 1.3 nM for 30 minutes on ice. Cells were then centrifuged at 4° C. at 1600 rpm for 3 minutes; supernatant was aspirated and cells were washed with 200 μL FACS buffer. The washing procedure was repeated twice. […] Cells were washed with 200 μL FACS buffer twice and analyzed by flow cytometry (Guava). […] The mean dissociation constant (KD) of PA13R3-P1C4 humanized variants was determined by averaging at least 4 different experiments using at least 2 different batches of protein (FIG. 20A-D and Table 16).
# T3 sequence (P21554 whole entry): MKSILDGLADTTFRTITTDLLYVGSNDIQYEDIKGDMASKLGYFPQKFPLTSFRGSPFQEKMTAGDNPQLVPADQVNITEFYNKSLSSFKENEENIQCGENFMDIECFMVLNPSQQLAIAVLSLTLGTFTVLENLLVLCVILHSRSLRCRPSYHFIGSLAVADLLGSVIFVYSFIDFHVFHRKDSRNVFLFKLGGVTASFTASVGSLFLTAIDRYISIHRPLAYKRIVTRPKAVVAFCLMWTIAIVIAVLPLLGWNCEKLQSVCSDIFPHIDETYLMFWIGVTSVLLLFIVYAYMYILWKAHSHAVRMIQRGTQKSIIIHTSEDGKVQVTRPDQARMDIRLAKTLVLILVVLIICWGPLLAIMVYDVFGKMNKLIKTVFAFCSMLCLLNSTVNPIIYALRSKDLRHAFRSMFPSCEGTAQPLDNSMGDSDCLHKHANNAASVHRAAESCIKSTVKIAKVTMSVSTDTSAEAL
# T1 sequence (P41595 whole entry): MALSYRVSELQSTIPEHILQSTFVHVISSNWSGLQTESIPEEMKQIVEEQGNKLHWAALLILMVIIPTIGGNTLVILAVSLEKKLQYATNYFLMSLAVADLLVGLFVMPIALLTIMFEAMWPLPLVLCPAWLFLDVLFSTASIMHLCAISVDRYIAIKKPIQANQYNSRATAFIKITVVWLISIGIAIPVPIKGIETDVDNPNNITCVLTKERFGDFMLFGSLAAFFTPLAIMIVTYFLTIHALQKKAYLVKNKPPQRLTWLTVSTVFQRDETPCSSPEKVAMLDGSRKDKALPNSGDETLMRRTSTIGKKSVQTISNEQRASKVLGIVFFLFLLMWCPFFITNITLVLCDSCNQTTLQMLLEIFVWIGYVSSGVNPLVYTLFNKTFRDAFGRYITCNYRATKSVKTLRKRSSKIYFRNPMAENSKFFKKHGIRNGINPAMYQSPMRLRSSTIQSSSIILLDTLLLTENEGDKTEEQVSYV
# T2 sequence (P47746 whole entry): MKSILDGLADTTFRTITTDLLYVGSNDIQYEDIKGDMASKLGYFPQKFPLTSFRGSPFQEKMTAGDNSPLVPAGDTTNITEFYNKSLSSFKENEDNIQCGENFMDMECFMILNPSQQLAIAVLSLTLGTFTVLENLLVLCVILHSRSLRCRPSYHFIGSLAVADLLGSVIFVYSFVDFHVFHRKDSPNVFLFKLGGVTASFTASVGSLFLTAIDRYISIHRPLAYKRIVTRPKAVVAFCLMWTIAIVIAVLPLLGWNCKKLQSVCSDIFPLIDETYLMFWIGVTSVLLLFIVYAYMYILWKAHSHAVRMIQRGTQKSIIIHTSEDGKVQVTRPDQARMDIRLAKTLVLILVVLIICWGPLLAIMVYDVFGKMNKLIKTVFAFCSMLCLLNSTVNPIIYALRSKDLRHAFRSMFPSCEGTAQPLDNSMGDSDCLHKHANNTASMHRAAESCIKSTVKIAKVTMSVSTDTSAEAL
Molecule,cross-activity with 5ht2b (5HT2B expressing cells),cross-activity with Mouse CB1 [1],competition for CB1 binding [2],binding to parental TRex CHO (in words) [3],Kd TRexCHO Mouse CB1 ([1]; Table 10),Kd TRexCHO parental ([3]; Table 10)
B1,do not have cross-activity,do not have cross-activity,could also compete with PA13R3-P1C4,not parental TRex CHO,–,–
B2,do not have cross-activity,do not have cross-activity,competed with 36E12B6C2,not parental TRex CHO,No binding,No binding
B3,do not have cross-activity,do not have cross-activity,competed with 36E12B6C2,not parental TRex CHO,–,–
